# System: azocasein
# Test: Stability of Et-trypsin and trypsin in a disinfecting composition (Example 2B), azocasein method
# Format: physicochemical
# Conditions: 37° C., Example 2B composition, 50 μg/ml
# Description: Azocasein Method The following solutions are used in this assay: 1) Buffer solution: 0.05 M sodium phosphate buffer containing 0.9% sodium chloride, pH 7.6. 2) Substrate solution: 2 mg/ml azocasein in the buffer solution mentioned above. The assay is initiated by mixing 1 ml of an appropriately diluted (such that the enzyme activity is in the range of standard curve) enzyme composition in phosphate buffer with 2 ml of azocasein substrate solution (2 mg/ml). After incubation at 37° C. for 20 minutes, the mixture is removed from the incubator and 1 ml of trichloroacetic acid to (14% w/v) is added to stop the enzyme reaction. The mixture is vortexed well and allowed to stand at room temperature for 20 minutes. After centrifuging at 2500 rpm (with a Beckman GS-6R Centrifuge) for 15 minutes, the supernatant is filtered with a serum sampler. 2 ml of the clear yellow filtrate is then adjusted to a neutral pH with 2 ml of 0.5 N sodium hydroxide and the absorbance of 440 nm wavelength light is measured with a spectrophotometer. The amount of azocasein hydrolyzed is calculated based on a standard curve of known concentrations of azocasein solution developed under identical conditions. An enzyme activity unit (“AZ U”) is defined as that amount of enzyme which hydrolyzes 1 μg of azocasein substrate/minute at 37° C. The following is an example of the stability of Et-trypsin or Me-trypsin in a disinfecting composition of the present invention as compared to an analogous composition containing trypsin. The enzymes were solubilized in the Example 2B composition. The compositions were stored at 37° or 50° C. for 8 days or 30 hours, respectively. At various time points, enzyme activity was assayed using the azocasein method.
substance,measurement,setting,value
ethyl trypsin [Et-Trypsin],% Activity Remaining,1 Hour,100%
same,% Activity Remaining,2 Hours,100%
same,% Activity Remaining,4 Hours,95.2%
same,% Activity Remaining,6 Hours,99.3%
same,% Activity Remaining,8 Hours,97.9%
same,% Activity Remaining,1 day,89.7%
same,% Activity Remaining,2 days,82.5%
same,% Activity Remaining,4 days,76.4%
same,% Activity Remaining,8 days,65.6%
